The source of these data is the supplement of paper PMC12042874.

± gives the uncertainty stated by the source.

A short description of the data set: amyloid nucleation score (Sup35N fusion, yeast selection) (log enrichment); library NNK1; higher = more nucleation; inactive = no reads after selection. The gist of the method:
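Sup35N fusions to peptides of 20 random codons were expressed in psi-negative yeast, induced 24 hours with 100 μM copper sulfate, and grown 7 days at 30°C on medium lacking adenine and uracil. Input and output plasmid inserts were sequenced by Illumina. The nucleation score is the DiMSum log enrichment of output over input reads, centred on the mode score of non-aggregating sequences. Sequences with under 100 input reads were excluded.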

Substance GSNFTKVCILPSLHRTLLVG came in with an amyloid nucleation score of -0.222 ± 1.4. As to LRAPGTMVDRRCRGVWK, the amyloid nucleation score came to 0.356 ± 0.85. In the case of YYYVWNFGGWIGFRNVVSIR it was 0.05 ± 0.98; in that of VRIAPHKGPDRTSGVLLGRM, 0.838 ± 0.75; in that of VCFWSGEGNLGAWDGHELSM, 0.693 ± 0.46. Substance LFVDPL showed an amyloid nucleation score of 1.06 ± 0.88. Regarding GHAEIYMWTLGIPSRLFGAI, the amyloid nucleation score was found to be 0.049 ± 0.45.

Regarding AGGRFCLLKFLTRFASCRGE, the amyloid nucleation score was 2.44 ± 0.24. Take RSVNSETQKFMRWFMRVWTP: the amyloid nucleation score was -0.332 ± 0.33. In the case of LHCFMWFFHIDN, the amyloid nucleation score came out at 7.456 ± 0.057.

As to VFPFPLGFDFKNHERKSVV, the amyloid nucleation score is -1.24 ± 0.58.

Substance RLLSPLY gave an amyloid nucleation score of -0.773 ± 2.1. In the case of AIDRVSYHVKVVRGHINSKF, the amyloid nucleation score result is “inactive”. Substance WNDSYRINSTGCHDCLYRLF registered an amyloid nucleation score of -0.37 ± 0.3.

Take HRYYSYSWGLWLSTTWEYFS: the amyloid nucleation score entry is “inactive”. As for ILHDNFKSSELFAWSAYCRY, the amyloid nucleation score result was “inactive”. GHLNQCGLNL displayed an amyloid nucleation score of -0.136 ± 0.38. As to QRISWDFSWCRASWMPNLR, the amyloid nucleation score was 0.062 ± 0.34. As to TFYYPINFHTLGLYKLVVML, the amyloid nucleation score was 0.589 ± 0.33. Regarding HNCTTGVTFKSEIASILVQP, the amyloid nucleation score is -0.261 ± 0.4. Consider VSLLKGRVAMSRG, for which the amyloid nucleation score was 1.1 ± 0.38. In the case of YFAAVIRRFGWTDIERSHQC, the amyloid nucleation score came to 0.233 ± 0.79. In the case of VRDGDTMILGVYRNIWGTNV, the amyloid nucleation score stood at 0.429 ± 0.24. Turning to NLACGFKSWDFKRMRD, the amyloid nucleation score turned out to be 0.685 ± 0.51. In turn, NLEHKCVFVLHMKTLIISQP showed an amyloid nucleation score of 0.664 ± 1.2.

WIATC registered an amyloid nucleation score of 0.214 ± 0.29. HNVFDNLHMDSDKRMANSV gave an amyloid nucleation score of 0.428 ± 0.4. As to LNVIQPSWDRNFHFEVRFGH, the amyloid nucleation score stood at 7.942 ± 0.061. The substance NSAKLIARLWMMWDLATSDW displayed an amyloid nucleation score of -0.89 ± 0.46.

For the substance WRAYFACYNILESAFLLVQL, the amyloid nucleation score entry is “inactive”.

CYLLSRGYWSDMLGKWARGV had an amyloid nucleation score of 0.131 ± 0.54.

In turn, NSSTVDFSYTNYVRVLLLIA displayed an amyloid nucleation score of -0.745 ± 0.8. Consider HISGLPVWLSCSWFWPKRLL, for which the amyloid nucleation score came to 0.08 ± 0.32.

For IICFVVISWTRFLMSQKCFC, the amyloid nucleation score was -0.143 ± 0.35. In turn, NGCQSIMR gave an amyloid nucleation score of 0.165 ± 0.62. As for RWDSRQGFSRASQVARRADS, the amyloid nucleation score was -0.391 ± 0.39. In turn, ESHVWELDLGSWSRFGWRSR had an amyloid nucleation score of 2.62 ± 0.11. Under LLVSTVRVNGQI stands -0.016 ± 0.42; under LYWFAAWLATYIYAW, 0.109 ± 0.48; under YSLEFSSFMLFLTCLVSYNY, -0.457 ± 0.4. Substance MILWPS registered an amyloid nucleation score of 1.64 ± 0.16. Substance VFLKCFRYTFNNHINFFCVG came in with an amyloid nucleation score of 5.96 ± 0.064. EYLSA came in with an amyloid nucleation score of 0.403 ± 0.55. In the case of FGVTIPQVWVEC it was -0.961 ± 1.7; in that of YLGQWFNYTCYQWVMV, 1.37 ± 0.21; in that of LKGRYDIKNY, “inactive”. In the case of SNESILFVGSPVTRFIQYVD it was “inactive”. Under TTGSALTETATDQVGWNYSL stands 0.265 ± 0.41; under AHSALVTRTYSINIYFVSVE, 1.51 ± 0.21. GSLFYVRLLYRGCNTEITSK yielded an amyloid nucleation score of 0.925 ± 1.1. As for GYCVLVTLLGNTNEYPAGCP, the amyloid nucleation score stood at 0.563 ± 0.41. In the case of QCSLRPVPRKDALSFLGLML it was -0.363 ± 0.35; in that of LFRLYTEITGRMRVTKVKVV, 0.641 ± 0.69. MVSNAGDIPMRRLESLRLLR yielded an amyloid nucleation score of 0.748 ± 0.53.

In the case of PYYRLHANLPDEKRSTAILI, the amyloid nucleation score is -0.378 ± 0.55. In the case of SYPSGVLDSNNPVLARGLAQ, the amyloid nucleation score was -0.227 ± 0.41. KLFLLGAINGQFI: the amyloid nucleation score turned out to be 4.87 ± 0.066.

The substance GSNKRHSYTLVLSRNVYPSG yielded an amyloid nucleation score of 0.014 ± 0.49. Under RALALEPNSI stands “inactive”; under TYWYSVRNVAQLCPVEGYQS, -0.102 ± 0.7. On to TTASVSSEI, for which the amyloid nucleation score is -0.441 ± 1.2. In the case of NLSCAE it was -0.288 ± 0.71. In turn, NRANSVVGQACRKSVIRNRF had an amyloid nucleation score of -0.144 ± 0.32. With WGQTWDVFY, the amyloid nucleation score was 0.916 ± 0.46. Take RGVCSRDVWARLVELTAEMG: the amyloid nucleation score stood at 0.459 ± 0.93. LFRYTVRQGWFKRETHWVPM came in with an amyloid nucleation score of 0.296 ± 0.53.

Take FYIMTLGYCSWFSVGKRLSP: the amyloid nucleation score is -0.551 ± 0.43.

In turn, LNNSGVTTICLAGRVTFCTD had an amyloid nucleation score of 6.55 ± 0.075.

Regarding VSKGLEHRPHVWG, the amyloid nucleation score was 5.35 ± 0.064.

In the case of AKRLFRRSTLMTSNTGLAVL, the amyloid nucleation score is 0.287 ± 1.4. In turn, NTALMWVMMIVIWSVVSFTS had an amyloid nucleation score of -0.8 ± 1.4. In turn, SGGMFQVICLV showed an amyloid nucleation score of 0.263 ± 0.34. In turn, ILVHSMGFLGKRYCGCMWGD gave an amyloid nucleation score of 3.41 ± 0.13.

IGVCILTDRLHD: the amyloid nucleation score entry is “inactive”. As for LDRTVWH, the amyloid nucleation score came out at 0.757 ± 0.34. In the case of VLVDGSRSWGG it was 0.952 ± 0.52; in that of LSYLLWGETRIRYWVPASLM, -0.32 ± 0.61; in that of LVSVCLGCEVCIFVVYIPNP, “inactive”. Take ICWRMKVMWPYRTIGSSLTF: the amyloid nucleation score is 1.02 ± 0.45. Take AGVNWASHWHMDHMSGFVEW: the amyloid nucleation score is -0.684 ± 0.3. For the substance YRWVFKCRCRSPGGESKSSR, the amyloid nucleation score turned out to be 5.9 ± 0.097.

The substance VLIDMSGSCSKAMHAIRQDR showed an amyloid nucleation score of 0.218 ± 0.73. Take EGICNYSSKYCQGMVLIGSS: the amyloid nucleation score was -1.52 ± 1.5. In the case of LLCLCESRVARYTWACHSWY it was -0.366 ± 0.3; in that of YKRCAPDRHYG, 1.06 ± 0.58; in that of SATPGRGY, 0.851 ± 0.24.

Regarding TDLLWKTSLLPNVY, the amyloid nucleation score was found to be 1.71 ± 0.36. Take RVKVGSRCVSQFLSTLVQRS: the amyloid nucleation score was -0.266 ± 1.4. In the case of ITYKLFVISCNEKRNLICHN it was -0.477 ± 0.32; in that of IVGMASRCRGFR, 1.11 ± 0.71. With VRAELFLTLPKGTQADALAV, the amyloid nucleation score was -0.166 ± 0.67.

Consider PGSVDCTVGD, for which the amyloid nucleation score was -0.048 ± 0.65. In the case of ERNRHKVIMFMTSPWEMVIL it was -1.06 ± 2.4; in that of ALGLRILCMRRDSRWDSPCS, 0.353 ± 0.84; in that of SESTYYDIQLPVHMLVDMSE, 0.257 ± 0.24. In turn, SWIANRRRFAL registered an amyloid nucleation score of 3.64 ± 0.15. Substance RSWLLIKLTSQHASKMLVTG showed an amyloid nucleation score of 0.569 ± 0.46. With KRERGKISIEEAMRQAGQRS, the amyloid nucleation score came out at 0.578 ± 0.7. The substance LVMYDSL displayed an amyloid nucleation score of 0.489 ± 0.58. For the substance CITANMDENLVSRIRWASEY, the amyloid nucleation score is 0.462 ± 0.79. In turn, NTSEIPCCVIQEWFYCTFYL had an amyloid nucleation score of 7.503 ± 0.044. Consider SRLTFVVVWDSSVVHIRMTG, for which the amyloid nucleation score came to 3.46 ± 0.12. For KVNFSSSLGCVN, the amyloid nucleation score came to 0.713 ± 0.85.

VITNVRL displayed an amyloid nucleation score of -0.089 ± 0.35. RNMKPIYFLRPTISVNRSNR came in with an amyloid nucleation score of 0.594 ± 0.85.

HVSSSE: the amyloid nucleation score is -0.174 ± 1.1. As for HGPHYLLITGRGTRDNQSRD, the amyloid nucleation score was -0.721 ± 0.65.

Turning to GLNLRCSNTREGKVWNRTW, the amyloid nucleation score was -0.37 ± 0.47. As to GGKESLFRCFADRSCFMYI, the amyloid nucleation score is -0.724 ± 2.4. For the substance RCNAKWL, the amyloid nucleation score is -0.426 ± 0.77. IPLAGLFYSFWISLHTRSNT: the amyloid nucleation score was -0.308 ± 0.52.

NSILFNGTQLD: the amyloid nucleation score was -0.976 ± 0.35. VCVLSGRK registered an amyloid nucleation score of -0.416 ± 0.38. AIYIVVEI had an amyloid nucleation score of -0.764 ± 1.2.

Consider VMGLT, for which the amyloid nucleation score was -0.242 ± 1.1. In the case of SCEGGCAGSCGVP it was -0.641 ± 1.5; in that of SYTVFCRVWYDSHRFM, -0.066 ± 0.45; in that of SFDGDRLNVVMAQWL, -0.357 ± 0.58.

As for YFRLHSFFFVESQGICVELR, the amyloid nucleation score is -0.251 ± 0.69.

For AGYGFKCMGYRLDLKTPFVY, the amyloid nucleation score was 0.019 ± 0.59. In the case of HSIDLGTFDGFFKIRLSSTT it was 0.598 ± 0.78; in that of PDFNPMSVVNGCSGSRWLNA, -0.676 ± 0.75; in that of NQILRLMCWTFYFRESSKSY, “inactive”. As to MNPGG, the amyloid nucleation score is -0.026 ± 0.21. Regarding MQFNVSWRNGWSRWIGVSDV, the amyloid nucleation score amounted to 6.519 ± 0.054. Consider CPAWFFCIVKKYFKTVAQTV, for which the amyloid nucleation score stood at 0.291 ± 0.48. In the case of IEIIIASSGHHHYIKRDNVY it was 0.652 ± 0.58; in that of VDSDLGLSERMTVKSTFAFC, 0.39 ± 0.56; in that of SRIIGMSRCCIGHRYMYMKT, -0.598 ± 1.4. In the case of TTQDCNLRD it was -0.021 ± 0.34; in that of LREFPFYFTISLRITLFMSL, -0.391 ± 0.23. TYRTLAARRWQLAYALWVLL came in with an amyloid nucleation score of -0.474 ± 0.6.

In the case of PSRNLVRVDPFLGIRQMVSS, the amyloid nucleation score is -0.096 ± 1.

SITSSYKYGKVSWSMSLGVG had an amyloid nucleation score of -1.07 ± 0.46. For the substance VKSWVPTDVGFEQQSGREVL, the amyloid nucleation score is 0.093 ± 0.25. The substance AKLAPCNSLVIDTY returned an amyloid nucleation score of 1.89 ± 0.4. EHWSRSVGSHASVWFVAPAG: the amyloid nucleation score result was “inactive”.

Turning to SASDVWCLQMLRSVYFPPQG, the amyloid nucleation score result was “inactive”.

Substance NRLNGNLPLNHR registered an amyloid nucleation score of 0.014 ± 0.51.
